Data from paper PMC2688079.

Target: Aqy1 from Pichia pastoris (Pichia pastoris)
Assay: crystal structure; hanging drop vapour diffusion at 4°C, protein at 9 mg/ml in beta-octylglucopyranoside; Crystal1: 28% PEG400, 100 mM Na-citrate pH 3.5, 200 mM Li2SO4 (1.15 Å); Crystal2: 33% PEG400, 100 mM Tris pH 8.0, 100 mM NaCl, 100 mM CdCl2 (1.40 Å); both space group I4, identical structures

Aqy1 from Pichia pastoris (natural protein)
stoichiometry N: 4
